Assay results: patent US20180164286A1 (MEDICAL DIAGNOSTIC LABORATORIES, published 2018)
Positions count from the first letter of the chain named. Names and notes keep the numbering of the source.

B1: LB-4E-BP1 with T37E, T46E, S65E, and T70E (other)
chain: MVFTLEDFVGDWEQTAAYNLDQVLEQGGVSSLLQNLAVSVTPIQRIVRSGENALKIDIHVIIPYEGLSADQMAQIEEVFKVVYPVDDHHFKVILPYGTLVIDGVTPNMLNYFGRPYEGIAVFDGKKITVTGTLWNGNKIIDERLITPDGSMLFRVTINSGSSGGGGSGGGGSSGMSGGSSCSQTPSRAIPATRRVVLGDGVQLPPGDYSTEPGGTLFSTEPGGTRIIYDRKFLMECRNEPVTKEPPRDLPTIPGVTSPSSDEPPMEASQSHLRNSPEDKRAGGEESQFEMDI
notes: All four mTOR phosphorylation sites changed to glutamate on the LB-4E-BP1 plasmid; The residue numbers count on 4E-BP1 itself; also called T37/46/70E/S65E (all 4 sites mutated); all E
B2: Large BiT (LB)-4E-BP2, full-length (other)
chain: MVFTLEDFVGDWEQTAAYNLDQVLEQGGVSSLLQNLAVSVTPIQRIVRSGENALKIDIHVIIPYEGLSADQMAQIEEVFKVVYPVDDHHFKVILPYGTLVIDGVTPNMLNYFGRPYEGIAVFDGKKITVTGTLWNGNKIIDERLITPDGSMLFRVTINSGSSGGGGSGGGGSSGMSSSAGSGHQPSQSRAIPTRTVAISDAAQLPHDYCTTPGGTLFSTTPGGTRIIYDRKFLLDRRNSPMAQTPPCHLPNIPGVTSPGTLIEDSKVEVNNLNNLNNHDRKHAVGDDAQFEMDI
B3: D55Y LB-4E-BP2 (other)
chain: B2 chain with D229Y
notes: Patient (COSMIC) mutation made in LB-4E-BP2 as a linear expression cassette; The residue number counts on 4E-BP2 itself; also called 4EBP2-D55Y
B4: R62P LB-4E-BP2 (other)
chain: B2 chain with R236P
notes: Patient (COSMIC) mutation made in LB-4E-BP2 as a linear expression cassette; The residue number counts on 4E-BP2 itself; also called 4EBP2-R62P
B5: 4E-BP1 with C-terminal LB at residue 75 (other, UniProt Q13541 1-75, looked up, not shown: large carriers)
chain: MSGGSSCSQTPSRAIPATRRVVLGDGVQLPPGDYSTTPGGTLFSTTPGGTRIIYDRKFLMECRNSPVTKTPPRDL

What was measured:
[1] = molecular target: T1, Small BiT (SB)-eIF4E, full-length; assay: split-luciferase (NanoBiT) luminescence in HEK293 cells
T1 construct: N-terminal Small BiT fusion of full-length eIF4E (cDNA Origene RC207333), expressed intracellularly in HEK293, MCF-7 or HEK293-derived clones; also called Full-length SB-eIF4E; SB-linked eIF4E

[2] = molecular target: T1, Small BiT (SB)-eIF4E, full-length; assay: cell-based or functional assay
[3] = molecular target: T1, Small BiT (SB)-eIF4E, full-length; assay: split-luciferase luminescence in 3A1 cell line stably expressing SB-eIF4E

Binder	fold-change of split-luciferase luminescence, rapamycin (50 nM, 1 h) over vehicle; HEK293 cells [2] [fold]	binding result [3]	also measured
B1			binding result [1]: no binding
B2	1.84		
B3		no binding	
B4		no binding	
B5	0.83		
